Measured values reported in US20210269549A1, “ANTI-SAS1B ANTIBODIES, ASSOCIATED METHODS OF USE, AND COMPOSITIONS AND METHODS FOR DETECTING AND TREATING CANCER” (UNIVERSITY OF VIRGINIA PATENT FOUNDATION, priority 2015, published 2021).

T1: mouse SAS1B (Mus musculus, UniProt Q6HA09)
T1 sequence (Q6HA09 24-435): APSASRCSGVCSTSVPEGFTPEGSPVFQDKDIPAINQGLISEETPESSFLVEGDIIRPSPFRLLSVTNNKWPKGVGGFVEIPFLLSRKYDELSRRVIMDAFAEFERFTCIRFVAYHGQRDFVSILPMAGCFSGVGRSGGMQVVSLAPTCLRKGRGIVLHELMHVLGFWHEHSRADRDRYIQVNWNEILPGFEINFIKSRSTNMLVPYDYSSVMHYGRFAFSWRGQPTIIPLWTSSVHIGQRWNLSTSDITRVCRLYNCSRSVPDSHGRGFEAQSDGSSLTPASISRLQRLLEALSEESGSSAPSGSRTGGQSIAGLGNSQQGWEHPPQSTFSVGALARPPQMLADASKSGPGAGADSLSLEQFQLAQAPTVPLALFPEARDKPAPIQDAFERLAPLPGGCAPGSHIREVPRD


Tests used:
renal carcinoma cells = experiment: ADC assay on renal carcinoma cells; assay type: cell-based; settings: 15 nM Fab-DMDM, 4 days
Experimental: The cytotoxic effect of anti-EGFR (AY13), anti-SAS1B (SB2) and anti-CABYR (3A4) monoclonal antibodies on renal carcinoma cells were tested by ADC assay. An average of 3 experiments in triplicate is reported.

[1] = test system: human pancreatic cancer cell MPanc96; experiment: ADC cytotoxicity assay (total cellular ATP), MPanc96; assay type: cell-based; settings: 0.1 nM mAb, Fab-DMDM constant at 15 nM, ~72 hours
Experimental: The cytotoxic effect of anti-human SAS1B mAbs SB2, SB4, SB5 on human pancreatic cancer cell MPanc96 was determined by ADC assay. Human pancreatic cancer cells MPanc96 were seeded in triplicate on 96 well plates (1100 cells per well) overnight and then treated with SB2, SB4, SB5, and […] (anti-CABYR) and anti-mouse Fab-cleavable-Duocarmycin complex for ˜72 hours. The presence of viable live cells per well was measured by total cellular ATP content in relative luminescence unit (RLU). […] The anti-SAS1B mAbs SB2, SB4, and SB5 killed 80%, 64%, 57% of cells, respectively, at 1 nM concentration when Fab-DMDM was kept constant at 15 nM for all primary antibody dilutions. SB2 killed 67% of cells at 0.1 nM concentration. […] Staurosporine, a general protein kinase inhibitor, which induces apoptosis, was used as a positive control and DMSO was used as a negative control. The data are shown in FIG. 7A-B and represent an average of triplicate experiments.

mouse SAS1B = molecular target: T1, mouse SAS1B; experiment: Western blot of mouse SAS1B probed with anti-human SAS1B murine mAbs; assay type: binding; settings: Table 1
Excerpt: A western blot of human SAS1B and mouse SAS1B was probed with anti-human SAS1B murine monoclonal antibodies SB1, SB2, SB3, SB4, SB5, SB6, and SB7.

| Molecule | Cytotoxic effect (renal carcinoma cells) | Cells killed [1] | Specifically binds mouse and human SAS1B (mouse SAS1B) |
| --- | --- | --- | --- |
| SB2: mouse anti-human SAS1B monoclonal antibody, IgG2b; VH SEQ ID NO:14, VL SEQ ID NO:15 (antibody, listed as Mus musculus, V domains shown) VH: EVQLQQSGPELVKPGSSVKISCKASGYTFTDYNMVWVKQSHGKSLEWIGAVNPNNGGTSYNQKFKGKATLTVDKSSSTAYMELRSLTSEDSAVYYCVPNWDWFAYWGQGTLVTVSA VL: DVLMTQTPLSLPVSLGDQASISCRSSQSLVHSNGNTYLEWYLQKPGQSPNLLIYKVSNRFSGVPDRFSGSGSGTDFTLKISRVEAEDLGVYYCFQGSHVPFTFGSGTKLEIK | cytotoxic effect at 0.01, 0.1 nM and higher concentrations | 67% |  |
| SB1: mouse anti-SAS1B monoclonal antibody, IgG2a; VH SEQ ID NO:12, VL SEQ ID NO:13 (antibody, listed as Mus musculus, V domains shown) VH: EVQLQQSGPELVKPGSSVKISCKASGYTFTDYNMDWVKQSHGKSLEWIGAINPNNGGTSYNQKFKGKATLTVDKSSSTAYMELRSLTSEDSAVYYCATNEYWGQGTTLTVSS VL: NIVMTQSPKSMSMSVGERVTLSCKASENVGTYVSWYQQKPEQSPKLLIYGASNRYTGVPDRFTGSGSATDFTLTISSVQAEDLADYHCGQSYSYPWTFGGGTKLEIK |  |  | Yes |
